Where “and” joins values, the source holds several entries; their conditions need not be identical. Equal values may be shown once. Read-outs that look alike come from different tables or passages of the source.
What was measured:
Experiment in all cases: cell-based or functional assay
[1] = target: T1, Ct.Ste2, Ste2-like mating GPCR of Candida tropicalis (Candida tropicalis)
T1 chain: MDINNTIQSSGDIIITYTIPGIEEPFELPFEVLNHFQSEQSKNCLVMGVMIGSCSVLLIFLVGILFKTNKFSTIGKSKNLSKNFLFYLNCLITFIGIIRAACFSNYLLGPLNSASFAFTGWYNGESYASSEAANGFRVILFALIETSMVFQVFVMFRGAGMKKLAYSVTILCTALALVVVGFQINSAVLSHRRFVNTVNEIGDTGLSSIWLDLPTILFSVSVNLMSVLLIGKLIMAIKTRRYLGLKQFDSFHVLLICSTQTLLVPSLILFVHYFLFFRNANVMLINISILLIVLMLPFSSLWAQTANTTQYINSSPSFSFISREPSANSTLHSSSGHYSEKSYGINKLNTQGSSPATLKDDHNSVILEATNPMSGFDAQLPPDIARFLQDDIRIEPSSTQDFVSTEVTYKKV

[2] = target: T2, Sc.Ste2, Saccharomyces cerevisiae mating GPCR Ste2 (Saccharomyces cerevisiae, UniProt D6VTK4 1-431)
T2 sequence: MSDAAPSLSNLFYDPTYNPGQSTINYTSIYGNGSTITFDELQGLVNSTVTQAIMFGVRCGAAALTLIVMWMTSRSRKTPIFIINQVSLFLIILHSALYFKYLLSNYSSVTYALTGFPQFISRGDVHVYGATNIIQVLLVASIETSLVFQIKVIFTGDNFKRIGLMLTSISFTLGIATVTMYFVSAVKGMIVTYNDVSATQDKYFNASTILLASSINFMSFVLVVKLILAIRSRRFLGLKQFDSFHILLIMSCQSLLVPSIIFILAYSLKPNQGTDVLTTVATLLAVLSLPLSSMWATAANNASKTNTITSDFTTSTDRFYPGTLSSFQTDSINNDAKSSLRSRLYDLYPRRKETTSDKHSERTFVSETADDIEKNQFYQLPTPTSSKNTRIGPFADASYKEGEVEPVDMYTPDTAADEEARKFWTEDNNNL

[3] = target: T2, Sc.Ste2, Saccharomyces cerevisiae …; remark: listed apart in the source
[4] = target: T3, Kl.Ste2, Ste2-like mating GPCR of Kluyveromyces lactis (Kluyveromyces lactis)
T3 chain: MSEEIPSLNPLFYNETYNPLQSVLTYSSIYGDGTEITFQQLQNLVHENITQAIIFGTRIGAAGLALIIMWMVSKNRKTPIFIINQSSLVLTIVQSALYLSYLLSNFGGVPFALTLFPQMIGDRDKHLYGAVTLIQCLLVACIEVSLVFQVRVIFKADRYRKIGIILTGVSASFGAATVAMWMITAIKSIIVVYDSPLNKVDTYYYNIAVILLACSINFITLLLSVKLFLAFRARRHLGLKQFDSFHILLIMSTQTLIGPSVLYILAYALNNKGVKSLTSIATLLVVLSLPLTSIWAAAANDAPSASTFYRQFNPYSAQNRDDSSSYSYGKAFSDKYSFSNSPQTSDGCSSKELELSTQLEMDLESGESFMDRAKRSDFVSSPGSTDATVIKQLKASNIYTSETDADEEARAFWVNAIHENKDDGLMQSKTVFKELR

[5] = target: T4, Kp.Ste2, Ste2-like mating GPCR of Komagataella (Pichia) pastoris (Komagataella (Pichia) pastoris)
T4 chain: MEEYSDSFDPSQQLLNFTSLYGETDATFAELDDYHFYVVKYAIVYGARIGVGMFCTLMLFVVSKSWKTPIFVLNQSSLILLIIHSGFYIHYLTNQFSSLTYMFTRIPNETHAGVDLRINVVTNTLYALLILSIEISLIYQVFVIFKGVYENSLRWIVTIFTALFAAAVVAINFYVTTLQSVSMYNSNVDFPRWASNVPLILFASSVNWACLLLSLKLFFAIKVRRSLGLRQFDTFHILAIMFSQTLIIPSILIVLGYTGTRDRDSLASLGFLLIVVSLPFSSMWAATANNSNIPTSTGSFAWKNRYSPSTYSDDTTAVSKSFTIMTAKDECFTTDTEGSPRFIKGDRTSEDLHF

[6] = target: T5, Gc.Ste2, Ste2-like mating GPCR of Geotrichum candidum (Geotrichum candidum)
T5 chain: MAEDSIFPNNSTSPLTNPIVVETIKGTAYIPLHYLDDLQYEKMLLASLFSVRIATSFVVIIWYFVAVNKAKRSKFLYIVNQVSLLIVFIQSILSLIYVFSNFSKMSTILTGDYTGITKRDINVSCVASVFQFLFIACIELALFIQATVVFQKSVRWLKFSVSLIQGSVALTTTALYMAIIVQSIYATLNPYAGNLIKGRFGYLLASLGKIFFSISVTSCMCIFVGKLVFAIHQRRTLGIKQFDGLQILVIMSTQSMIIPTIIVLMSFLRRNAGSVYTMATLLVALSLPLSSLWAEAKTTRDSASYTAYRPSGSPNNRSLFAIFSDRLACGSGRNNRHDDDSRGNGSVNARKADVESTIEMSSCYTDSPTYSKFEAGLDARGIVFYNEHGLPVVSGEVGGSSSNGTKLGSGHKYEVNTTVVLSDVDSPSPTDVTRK

In the case of KFKFRLTRYGWFSPN [Ct peptide ligand #1 KFKFRLTRYGWFSPN], the “Bttm (FUS1p-RFP reporter)” value [1] is reported as 32 fluorescence/A600 (not printed), the “EC50 (FUS1p-RFP reporter)” value [1] is reported as -8.2 log10 M (not printed) and the “Fold Change (FUS1p-RFP reporter)” value [1] is reported as 5.2 fold. The “Span (FUS1p-RFP reporter)” value [1] was 135 fluorescence/A600 (not printed) and the “Top (FUS1p-RFP reporter)” value [1] was 167 fluorescence/A600 (not printed).

With WHWLQLKPGQPMY [Sc peptide ligand #1 WHWLQLKPGQPMY (S. cerevisiae alpha-factor)] the “Bttm (FUS1p-RFP reporter)” value [2] was 36.2 fluorescence/A600 (not printed), the “EC50 (FUS1p-RFP reporter)” value [2] was -8.9 log10 M (not printed) and the “Fold Change (FUS1p-RFP reporter)” value [2] was 7 fold. For the same binder, the “Span (FUS1p-RFP reporter)” value [2] was 217 fluorescence/A600 (not printed), the “Top (FUS1p-RFP reporter)” value [2] was 253 fluorescence/A600 (not printed) and the “EC50 (FUS1p-RFP reporter)” value [3] was 1.25 nM and ~1 nM.

For WSWITLRPGQPIF [Kl peptide ligand #1 WSWITLRPGQPIF], the “Bttm (FUS1p-RFP reporter)” value [4] was 37.2 fluorescence/A600 (not printed), the “EC50 (FUS1p-RFP reporter)” value [4] was -7.3 log10 M (not printed) and the “Fold Change (FUS1p-RFP reporter)” value [4] was 6 fold. For the same binder, the “Span (FUS1p-RFP reporter)” value [4] was 186 fluorescence/A600 (not printed) and the “Top (FUS1p-RFP reporter)” value [4] was 223 fluorescence/A600 (not printed).

With FRWRNNEKNQPFG [Kp peptide ligand #1 (Table 3: …)] the “Bttm (FUS1p-RFP reporter)” value [5] was 44.8 fluorescence/A600 (not printed), the “EC50 (FUS1p-RFP reporter)” value [5] was -8.2 log10 M (not printed) and the “Fold Change (FUS1p-RFP reporter)” value [5] was 6 fold. The “Span (FUS1p-RFP reporter)” value [5] was 224 fluorescence/A600 (not printed) and the “Top (FUS1p-RFP reporter)” value [5] was 269 fluorescence/A600 (not printed).

GDWGWFWYVPRPGDPAM [Gc peptide ligand #1 GDWGWFWYVPRPGDPAM] was tested, and the “Bttm (FUS1p-RFP reporter)” value [6] was 22.9 fluorescence/A600 (not printed), the “EC50 (FUS1p-RFP reporter)” value [6] was -6.9 log10 M (not printed) and the “Fold Change (FUS1p-RFP reporter)” value [6] was 8.2 fold. The “Span (FUS1p-RFP reporter)” value [6] was 164 fluorescence/A600 (not printed) and the “Top (FUS1p-RFP reporter)” value [6] was 187 fluorescence/A600 (not printed).

Reference: patent US20220119825A1, “SCALABLE PEPTIDE-GPCR INT[…] SYSTEMS” (THE TRUSTEES OF COLUMBIA UNIVERSITY IN THE CITY OF NEW YORK, priority 2019, published 2022)
